Test results: patent publication US20090028872A1 (Bristol-Myers Squibb, published 2009)

B1: anti-CD70 human monoclonal antibody 2H5 (antibody, V domains shown)
VH: QVQLVESGGGVVQPGRSLRLSCAASGFTFSSYIMHWVRQAPGKGLEWVAVISYDGRNKYYADSVKGRFTISRDNSKNTLYLQMNSLRAEDTAVYYCARDTDGYDFDYWGQGTLVTVSS
VL: EIVLTQSPATLSLSPGERATLSCRASQSVSSYLAWYQQKPGQAPRLLIYDASNRATGIPARFSGSGSGTDFTLTISSLEPEDFAVYYCQQRTNWPLTFGGGTKVEIK
notes: Fully human IgG with kappa light chain, from a hybridoma; human IgG1 isotype controls were used; also called HuMAb 2H5
B2: non-fucosylated anti-CD70 human monoclonal antibody 2H5 (antibody, V domains shown)
VH: B1 VH
VL: B1 VL
modifications: antibody lacking in fucosyl residues (expressed in FUT8-deficient CHO cell line Ms704-PF)

What was measured:
[1] = target: T1, human CD70 expressed on the cell surface (human, UniProt P32970 1-193); assay: flow cytometry titration on A498 cells, PE anti-human IgG
T1 construct: whole, on cells; The same protein is the target for every cell line that carries CD70; also called full length CD70 on transfected CHO cells
T1 sequence (looked up): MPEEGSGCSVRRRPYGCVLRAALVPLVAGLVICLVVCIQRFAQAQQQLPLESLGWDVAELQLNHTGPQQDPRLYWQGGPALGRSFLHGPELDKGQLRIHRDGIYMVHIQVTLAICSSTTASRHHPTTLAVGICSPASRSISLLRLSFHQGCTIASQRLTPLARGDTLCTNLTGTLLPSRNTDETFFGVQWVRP
Method: Binding of the anti-CD70 human monoclonal antibodies was assessed by incubating 5×10⁵ cells with antibody at a starting concentration of 50 μg/ml and serially diluting the antibody at a 1:3 dilution. The cells were washed and binding was detected with a PE-labeled anti-human IgG Ab. Flow cytometric analyses were performed using a FACSCalibur flow cytometry (Becton Dickinson, San Jose, Calif.).

[2] = target: T1, human CD70 expressed on the cell surface; assay: cell-based or functional assay
[3] = target: human CD16 on effector cells (human, UniProt P08637 17-254); assay: cell-based or functional assay
Sequence of human CD16 on effector cells (P08637 17-254): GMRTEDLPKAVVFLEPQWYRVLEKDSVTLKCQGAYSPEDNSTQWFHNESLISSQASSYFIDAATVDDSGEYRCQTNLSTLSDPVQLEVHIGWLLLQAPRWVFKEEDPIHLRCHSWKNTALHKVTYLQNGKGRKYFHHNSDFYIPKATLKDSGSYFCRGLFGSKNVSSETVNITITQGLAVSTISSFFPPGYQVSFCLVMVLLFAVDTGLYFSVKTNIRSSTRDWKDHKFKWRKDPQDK

| Binder | EC50 (read off the curve) [1] | EC50 of decrease in ^3H-thymidine incorporation, Hum-Zap internalization assay, 786-O cells [2] | amount of anti-CD16 3G8 needed to reverse inhibition, 2H5NF against 2H5 [3] |
| --- | --- | --- | --- |
| B1 | ~7 nM | 0.942 nM | – |
| B2 | – | – | ~1000 fold |
